Test results: patent publication US11459586B2, “Methods for increasing efficiency of nuclease-mediated gene editing in stem cells” (President and Fellows of Harvard College, priority 2016, dated 2022)

Tests used:
human iPSC [1] = assay: mThy1 gene targeting in hiPSC co-transfected with DNA repair or viral inhibitor genes; format: cell-based
Procedure: FIGS. 9A-G. Effects of chemical and genetic inhibitors on mThy1 gene targeting in hiPSC. FIG. 9A. Mouse Thy1 gene targeting scheme. Human iPSC were nucleofected with the mThy1 targeting vector system plasmids and analyzed by flow cytometry five days later. The percentages of mThy1^+hThy1^−, mThy1^+hThy1^+, and mThy1^−hThy1^− cells for each sample (gated on live single cells) are graphed. Lines mark the percentage values for the control sample. FIGS. 9B-9D. Human iPSC were nucleofected with: 2 μg mThy1 targeting vector; 0.5 μg Cas9 plasmid; and 1.5 μg of sgRNA plasmids. The sample was divided into multiple wells and cultured in plain media (mTeSR1+10 μM Y-27632 ROCK inhibitor) supplemented with the indicated chemical inhibitor for three days. 20 μM pifithrin α, 200 μM peptide V5 (VPMLK, SEQ ID NO:31), 200 μM peptide control (IPMIK, SEQ ID NO:32), 50 μM TEMPOL, or the indicated concentrations of SCR7 or L755507 were used. FIG. 9B, mThy1^+hThy1^− (bottom portion of each bar in each graph), mThy1^+hThy1^+ (top portion of each bar in each graph). FIG. 9C, mThy1^+hThy1^− (bottom portion of each bar in each graph), mThy1^+hThy1^+ (top portion of each bar in left and center graphs, middle portion of each bar in right graph), and mThy1^−hThy1^− (top portion of each bar in right graph). FIG. 9D, mThy1^+hThy1^− (bottom portion of each bar in each graph), mThy1^+hThy1^+ (center portion of each bar in each graph), and mThy1^−hThy1^− (top portion of each bar in each graph). FIGS. 9E-9F. Human iPSC were nucleofected with: 2 μg mThy1 targeting vector plasmid; 0.5 μg Cas9 plasmid; 1 μg of sgRNA plasmids; and 0.5 μg of plasmid expressing the indicated DNA repair gene or pUC19 control (“Cas9 only”). For FIG. 9E, cultures were treated with 50 μM zVAD and 10 μM SB203580 post transfection. mThy1^+hThy1^− (bottom portion of each bar in each graph), mThy1^+hThy1^+ (top portion of each bar in left and center graphs, middle portion of each bar in right graph), and mThy1^−hThy1^− (top portion of each bar in right graph). FIG. 9F, mThy1^+hThy1^− (bottom portion of each bar in each graph), mThy1^+hThy1^+ (top portion of each bar in left and center graphs, middle portion of each bar in right graph), and mThy1^−hThy1^− (top portion of each bar in right graph). FIG. 9G. Human iPSC were nucleofected with: 2 μg mThy1 targeting vector plasmid; 0.5 μg Cas9 plasmid; and 1.5 μg of sgRNA plasmids. The indicated viral inhibitor genes were cloned into the Cas9 expression vector following an IRES sequence. Cultures were supplemented with 50 μM zVAD post transfection. mThy1^+hThy1^− (bottom portion of each bar in each graph), mThy1^+hThy1^+ (top portion of each bar in left and center graphs, middle portion of each bar in right graph), and mThy1^−hThy1^− (top portion of each bar in right graph). […]

human iPSC [2] = assay: gene disruption of hiPSC surface markers with truncated sgRNAs and Trex2 (flow cytometry); format: cell-based; conditions: 1 μg Trex2 plasmid with Cas9 and sgRNA plasmids, five days
Excerpt: FIG. 12. Gene disruption activity of truncated sgRNAs with and without the Trex2 endonuclease. Full length (20 bp of target complementarity) and Truncated (18-19 bp) sgRNAs were designed to target the coding region of four genes expressed on the surface of hiPSC (top) and cloned into expression plasmids under the constitutive U6 promoter. The Cas9 nuclease and Trex2 endonuclease were also cloned into separate expression plasmids under the constitutive EF1α promoter. Human iPSC were nucleofected with 0.5 μg Cas9 plasmid, 1 μg sgRNA plasmid, and 1 μg of either pUC19 control or Trex2 plasmid. Five days later, cells were stained for expression of the surface markers (Thy 1, CD147, HLA-A2, or HLA-BC) and analyzed by flow cytometry gated on live single cells (open histograms). Shaded histograms indicate staining of an untargeted hiPSC control. The percent of cells that have lost expression of the surface markers is shown.
Pluripotency of iPSC cultures was verified by flow cytometry staining using anti-human Tra-1/60 PE (TRA-1-60, BD) and anti-human Oct3/4 eFluor 660 (EM92, eBioscience) with the fixation buffer sold under the trademark BD CYTOFIX™ and permeabilization buffer sold under the trademark PHOSFLOW™ Perm/Wash buffers. […] Viable cell counts were measured with the cell analyzer sold under the trademark MUSE® Count & Viability Assay kit (EMD Millipore). […]

[3] = 0.5 μg plasmid overexpressing the DNA repair gene, 50 μM zVAD and 10 μM SB203580 post transfection (FIG. 9E)

Molecule | mThy1 gene targeting efficiency (human iPSC [1]; [3]) | mThy1 gene targeting efficiency (human iPSC [1]; Trex2 plasmid added (FIG. 9F)) | gene disruption frequencies (human iPSC [2])
Rad51: DNA repair gene overexpressed from plasmid (protein, UniProt Q06609 2-339, looked up) DNA repair protein RAD51 …: AMQMQLEANADTSVEEESFGPQPISRLEQCGINANDVKKLEEAGFHTVEAVAYAPKKELINIKGISEAKADKILAEAAKLVPMGFTTATEFHQRRSEIIQITTGSKELDKLLQGGIETGSITEMFGEFRTGKTQICHTLAVTCQLPIDRGGGEGKAMYIDTEGTFRPERLLAVAERYGLSGSDVLDNVAYARAFNTDHQTQLLYQASAMMVESRYALLIVDSATALYRTDYSGRGELSARQMHLARFLRMLLRLADEFGVAVVITNQVVAQVDGAAMFAADPKKPIGGNIIAHASTTRLYLRKGRGETRICKIYDSPCLPEAEAMFAINADGVGDAKD | reduced gene targeting efficiency | – | –
CtIP: principal HR mediator, overexpressed from plasmid (protein, UniProt Q99708 1-897, looked up) DNA endonuclease RBBP8: MNISGSSCGSPNSADTSSDFKDLWTKLKECHDREVQGLQVKVTKLKQERILDAQRLEEFFTKNQQLREQQKVLHETIKVLEDRLRAGLCDRCAVTEEHMRKKQQEFENIRQQNLKLITELMNERNTLQEENKKLSEQLQQKIENDQQHQAAELECEEDVIPDSPITAFSFSGVNRLRRKENPHVRYIEQTHTKLEHSVCANEMRKVSKSSTHPQHNPNENEILVADTYDQSQSPMAKAHGTSSYTPDKSSFNLATVVAETLGLGVQEESETQGPMSPLGDELYHCLEGNHKKQPFEESTRNTEDSLRFSDSTSKTPPQEELPTRVSSPVFGATSSIKSGLDLNTSLSPSLLQPGKKKHLKTLPFSNTCISRLEKTRSKSEDSALFTHHSLGSEVNKIIIQSSNKQILINKNISESLGEQNRTEYGKDSNTDKHLEPLKSLGGRTSKRKKTEEESEHEVSCPQASFDKENAFPFPMDNQFSMNGDCVMDKPLDLSDRFSAIQRQEKSQGSETSKNKFRQVTLYEALKTIPKGFSSSRKASDGNCTLPKDSPGEPCSQECIILQPLNKCSPDNKPSLQIKEENAVFKIPLRPRESLETENVLDDIKSAGSHEPIKIQTRSDHGGCELASVLQLNPCRTGKIKSLQNNQDVSFENIQWSIDPGADLSQYKMDVTVIDTKDGSQSKLGGETVDMDCTLVSETVLLKMKKQEQKGEKSSNEERKMNDSLEDMFDRTTHEEYESCLADSFSQAADEEEELSTATKKLHTHGDKQDKVKQKAFVEPYFKGDERETSLQNFPHIEVVRKKEERRKLLGHTCKECEIYYADMPAEEREKKLASCSRHRFRYIPPNTPENFWEVGFPSTQTCMERGYIKEDLDPCPRPKRRQPYNAIFSPKGKEQKT | did not improve mThy1 gene targeting efficiency | – | –
MRE11a: principal HR mediator, overexpressed from plasmid (protein, UniProt P49959 2-708, looked up) Double-strand break repair …: STADALDDENTFKILVATDIHLGFMEKDAVRGNDTFVTLDEILRLAQENEVDFILLGGDLFHENKPSRKTLHTCLELLRKYCMGDRPVQFEILSDQSVNFGFSKFPWVNYQDGNLNISIPVFSIHGNHDDPTGADALCALDILSCAGFVNHFGRSMSVEKIDISPVLLQKGSTKIALYGLGSIPDERLYRMFVNKKVTMLRPKEDENSWFNLFVIHQNRSKHGSTNFIPEQFLDDFIDLVIWGHEHECKIAPTKNEQQLFYISQPGSSVVTSLSPGEAVKKHVGLLRIKGRKMNMHKIPLHTVRQFFMEDIVLANHPDIFNPDNPKVTQAIQSFCLEKIEEMLENAERERLGNSHQPEKPLVRLRVDYSGGFEPFSVLRFSQKFVDRVANPKDIIHFFRHREQKEKTGEEINFGKLITKPSEGTTLRVEDLVKQYFQTAEKNVQLSLLTERGMGEAVQEFVDKEEKDAIEELVKYQLEKTQRFLKERHIDALEDKIDEEVRRFRETRQKNTNEEDDEVREAMTRARALRSQSEESASAFSADDLMSIDLAEQMANDSDDSISAATNKGRGRGRGRRGGRGQNSASRGGSQRGRADTGLETSTRSRNSKTAVSASRNMSIIDAFKSTRQQPSRNVTTKNYSEVIEVDESDVEEDIFPTTSKTDQRWSSTSSSKIMSQSQVSKGVDFESSEDDDDDPFMNTSSLRRNRR | did not improve mThy1 gene targeting efficiency | – | –
Trex2: endonuclease Trex2, expressed from plasmid (protein, UniProt Q9BQ50 1-236, looked up) Three prime repair …: MSEAPRAETFVFLDLEATGLPSVEPEIAELSLFAVHRSSLENPEHDESGALVLPRVLDKLTLCMCPERPFTAKASEITGLSSEGLARCRKAGFDGAVVRTLQAFLSRQAGPICLVAHNGFDYDFPLLCAELRRLGARLPRDTVCLDTLPALRGLDRAHSHGTRARGRQGYSLGSLFHRYFRAEPSAAHSAEGDVHTLLLIFLHRAAELLAWADEQARGWAHIEPMYLPPDDPSLEA | – | reduced mThy1 gene targeting efficiency | increased gene disruption frequencies
